Assay results from US20260258465, “NUCLEIC ACID-GUIDED DNA SYNTHESIS” (The Trustees of Columbia University in the City of New York, published 2026).

Molecular target: T1, KpnDRT2 reverse transcriptase (Klebsiella pneumoniae)
T1 chain: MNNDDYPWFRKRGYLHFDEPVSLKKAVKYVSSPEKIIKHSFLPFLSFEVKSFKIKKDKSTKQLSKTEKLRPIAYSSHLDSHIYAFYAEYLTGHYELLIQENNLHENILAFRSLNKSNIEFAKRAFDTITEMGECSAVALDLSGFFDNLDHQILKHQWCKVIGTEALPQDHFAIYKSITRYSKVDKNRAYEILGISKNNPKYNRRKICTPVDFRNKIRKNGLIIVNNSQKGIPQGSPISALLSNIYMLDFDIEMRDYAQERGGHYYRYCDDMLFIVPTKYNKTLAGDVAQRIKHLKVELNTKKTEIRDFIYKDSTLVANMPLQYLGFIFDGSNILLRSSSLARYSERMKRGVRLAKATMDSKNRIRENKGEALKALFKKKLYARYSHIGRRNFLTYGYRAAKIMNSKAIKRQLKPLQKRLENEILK
Test: EMSA; 20 mM HEPES pH 7.5, 5 mM MgCl2, 200 mM NaCl, 37 C
Details: tags: N-terminal His6-GST removed by TEV; C-terminal StrepII; stem-loops SL1-SL8
Method: To test binding of the ncRNA by the RT, the purified ncRNA was mixed with increasing amounts of the RT in reaction buffer (20 mM HEPES pH 7.5, 5 mM MgCl₂, 5% glycerol, 200 mM NaCl, and 1 mM DTT). Samples were incubated at 37° C. for 15 minutes and analyzed by electrophoretic mobility shift assay (EMSA). The shift in mobility at higher concentrations of RT enzyme indicates binding of the ncRNA by the RT (FIG. 14A).

B1: KpnDRT2 ncRNA WT (ssRNA)
RNA: GCCCUAAACAAAGGUUUAGGGGUAUUGUACAGGUUGUCAAGCCUCCCACAGGUCUUGGUGAAACCAAUCACUGUGACGACGGUAAGCAACACUUGGAUGAUAUUCAUAAUUGACUCCACGCUACUGAUUACAUUAUACAGCAUAUCUAACAUUUGCGGCGAGGUUCACAAUUUGUAUUUAGGUACUGAUUGUGGAUGAGAAGGUUGGAGAAAGACCACUUGGUUAAGCCGGAGGAUGUGUCCUAGAAUUGUCGCUAUUCUGUCAUCCUCCGGUUUUGCUAA
  binding result: binds
